Assay results taken from paper PMC6471214.

Experiments:
Biotinylated tubulin [1] = molecular target: Biotinylated tubulin (UniProt P02550); assay: LSPR (extinction maximum wavelength of gold nanoparticles) + fluorescence microscopy; short MT sample: biotinylated tubulin (7% of the tubulin mix, with 4% Rhodamine-labeled tubulin) held on 80 nm biotin-PEG AuNPs through neutravidin; BRB80 pH 6.8, 0.025% Tween 20; GMPCPP, 37 °C for 30 min; stabilised with 10 µM paclitaxel; spectra at room temperature
Biotinylated tubulin [2] = molecular target: Biotinylated tubulin (UniProt P02550); assay: LSPR (extinction maximum wavelength of gold nanoparticles) + fluorescence microscopy; long MT sample: as the short MT sample, then 10 volumes of 4 µM tubulin (4% Rhodamine-labeled) with 0.5 mM GMPCPP added, 20 more min at 37 °C before paclitaxel

λmax (LSPR extinction maximum wavelength) (Biotinylated tubulin [1]): 553 nm
λmax (LSPR extinction maximum wavelength) (Biotinylated tubulin [2]): 553 nm
Substance: Porcine tubulin (α/β-tubulin heterodimer subunits) (from UniProt P02550 1-451; P02554 1-445) (complex)
